What was measured:
Assay in all cases: IEDB peptide-MHC binding, purified MHC/competitive/radioactivity; filed as Kd, often an IC50 or EC50 that approximates it; ≥ and ≤ were set here for values at or beyond the usual limits of such assays
HLA-A*68:01 = target: HLA-A*68:01
HLA-A*11:01 = target: HLA-A*11:01
HLA-A*03:01 = target: HLA-A*03:01
HLA-A*31:01 = target: HLA-A*31:01
HLA-A*33:01 = target: HLA-A*33:01
HLA-A*02:06 = target: HLA-A*02:06
HLA-A*02:03 = conditions: source organism: Vaccinia virus WR
HLA-A*02:02 = conditions: source organism: Vaccinia virus WR
[1] = source organism: Vaccinia virus WR
[2] = source organism: SARS coronavirus Tor2
[3] = source organism: Lassa virus Josiah
[4] = source organism: Lassa virus GA391
[5] = source organism: Mammarenavirus lassaense

Sequence | Kd (HLA-A*68:01; [1]) [µM] | Kd (HLA-A*11:01; [1]) [µM] | Kd (HLA-A*03:01; [1]) [µM] | Kd (HLA-A*31:01; [1]) [µM] | Kd (HLA-A*33:01; [1]) [µM] | other results
YSKKFQESFY | 1.78 | 7.41 | 2.72 | 14.4 | ≥ 70 | –
ILQMREIIT | – | – | – | – | – | Kd (HLA-A*02:06; [1]): 1.23 µM; Kd (HLA-A*02:03): 1.34 µM; Kd (HLA-A*02:02): 4.1 µM
QQQGQTVTK | – | – | – | – | – | Kd (HLA-A*68:01; [2]): ≥ 50.5 µM; Kd (HLA-A*11:01; [2]): 0.476 µM; Kd (HLA-A*03:01; [2]): 16.6 µM; Kd (HLA-A*31:01; [2]): 3.03 µM; Kd (HLA-A*33:01; [2]): ≥ 30.4 µM
AIEPSGNNY | ≥ 77.7 | 5.79 | ≥ 59.6 | ≥ 77.9 | ≥ 77.7 | –
YFVCWHTHNY | – | – | – | – | – | Kd (HLA-A*68:01; [2]): 4.86 µM; Kd (HLA-A*11:01; [2]): 8.12 µM; Kd (HLA-A*03:01; [2]): 1.52 µM; Kd (HLA-A*31:01; [2]): 2.33 µM; Kd (HLA-A*33:01; [2]): 1.82 µM
IVNAANIHLK | – | – | – | – | – | Kd (HLA-A*68:01; [2]): 0.0665 µM; Kd (HLA-A*11:01; [2]): 0.104 µM; Kd (HLA-A*03:01; [2]): 0.0511 µM; Kd (HLA-A*31:01; [2]): 2.23 µM; Kd (HLA-A*33:01; [2]): ≥ 70 µM
SMTYLYNKY | 1.75 | 1.66 | 9.93 | ≥ 25 | 8.75 | –
TVYVYSRVK | – | – | – | – | – | Kd (HLA-A*68:01; [2]): 0.919 µM; Kd (HLA-A*11:01; [2]): 0.145 µM; Kd (HLA-A*03:01; [2]): 0.0675 µM; Kd (HLA-A*31:01; [2]): 0.769 µM; Kd (HLA-A*33:01; [2]): 1.07 µM
ISSVQLSNNK | 1.28 | 0.121 | 0.943 | 4.42 | 3 | –
LILNFLDWIK | 0.165 | 0.00927 | 0.0251 | 0.163 | 7.3 | –
VSKHWELTNK | 1.52 | 0.157 | 0.68 | 1.78 | 11.9 | –
DLDKVYEILK | 1.3 | 0.751 | 3.35 | 12 | ≥ 24.3 | –
GMSYYCKSHK | – | – | – | – | – | Kd (HLA-A*68:01; [2]): 1.37 µM; Kd (HLA-A*11:01; [2]): 0.0913 µM; Kd (HLA-A*03:01; [2]): 0.02 µM; Kd (HLA-A*31:01; [2]): 0.111 µM; Kd (HLA-A*33:01; [2]): 9.96 µM
AMSCDFNGGK | – | – | – | – | – | Kd (HLA-A*68:01; [3]): ≥ 26.7 µM; Kd (HLA-A*11:01; [3]): 0.273 µM; Kd (HLA-A*03:01; [3]): 2 µM; Kd (HLA-A*31:01; [3]): ≥ 30 µM; Kd (HLA-A*33:01; [3]): ≥ 24.2 µM
VLSAATETY | 1.47 | 6.46 | 3.01 | ≥ 69.7 | ≥ 77.7 | –
MLLQFAYSNR | – | – | – | – | – | Kd (HLA-A*68:01; [2]): 0.0508 µM; Kd (HLA-A*11:01; [2]): 0.86 µM; Kd (HLA-A*03:01; [2]): 0.164 µM; Kd (HLA-A*31:01; [2]): 0.0225 µM; Kd (HLA-A*33:01; [2]): 0.114 µM
FCNLSDAHK | – | – | – | – | – | Kd (HLA-A*68:01; [3]): 1.05 µM; Kd (HLA-A*11:01; [3]): ≥ 51 µM; Kd (HLA-A*03:01; [3]): ≥ 36.2 µM; Kd (HLA-A*31:01; [3]): ≥ 77.9 µM; Kd (HLA-A*33:01; [3]): 4.33 µM

Sequence | Kd (HLA-A*68:01; [1]) [µM] | Kd (HLA-A*11:01; [1]) [µM] | Kd (HLA-A*03:01; [1]) [µM] | Kd (HLA-A*31:01; [1]) [µM] | Kd (HLA-A*33:01; [1]) [µM] | other results
FVVTTDISEM | – | – | – | – | – | Kd (HLA-A*02:06; source organism: Dengue virus 3 Martinique/1243/1999): 0.297 µM
IMVASDVCKK | 0.0744 | 0.0533 | 0.0169 | 0.27 | 7.13 | –
NFIPIIYSK | 0.0769 | 0.212 | 8.66 | 0.0139 | 0.0256 | –
DIVNEHDIK | 3.67 | ≥ 77.9 | ≥ 63.2 | ≥ 77.9 | ≥ 77.7 | –
LMSIISTFH | – | – | – | – | – | Kd (HLA-A*68:01; [4]): 3.16 µM; Kd (HLA-A*11:01; [4]): 11.2 µM; Kd (HLA-A*03:01; [4]): 2.23 µM; Kd (HLA-A*31:01; [4]): 0.481 µM; Kd (HLA-A*33:01; [4]): ≥ 77.7 µM
QLCYCPASKK | 0.468 | 0.0962 | 0.17 | 12.5 | ≥ 59.5 | –
LSKDKMDSFK | 0.00146 | 0.015 | 0.0251 | 0.0278 | 0.304 | –
ASAWTLYAV | – | – | – | – | – | Kd (HLA-A*02:06; source organism: Dengue virus 2 Jamaica/1409/1983): 0.00811 µM
ELNGKNIEDV | – | – | – | – | – | Kd (HLA-A*02:06; source organism: Homo sapiens): ≥ 69.8 µM
CFPSTQRDY | ≥ 58.4 | 2.51 | 0.868 | 9.81 | ≥ 77.7 | –
EFCVDHPFIY | ≥ 54.7 | 11 | ≥ 70.1 | ≥ 37.6 | ≥ 44.4 | –
KALMQLTTK | 5.8 | 0.0879 | 0.181 | 0.135 | 18.6 | –
NSINNQLMY | 0.104 | 0.132 | 4.65 | ≥ 77.9 | ≥ 77.7 | –
SGSCLNNEK | – | – | – | – | – | Kd (HLA-A*68:01; [5]): 0.876 µM; Kd (HLA-A*11:01; [5]): 0.556 µM; Kd (HLA-A*03:01; [5]): ≥ 20.3 µM; Kd (HLA-A*31:01; [5]): ≥ 60.9 µM; Kd (HLA-A*33:01; [5]): ≥ 59.8 µM
ISEKETLNEY | ≥ 35 | 3 | ≥ 70.1 | ≥ 45.8 | ≥ 55.6 | –
ALSTNHGHK | – | – | – | – | – | Kd (HLA-A*68:01; [2]): 3.05 µM; Kd (HLA-A*11:01; [2]): 0.619 µM; Kd (HLA-A*03:01; [2]): 0.03 µM; Kd (HLA-A*31:01; [2]): 8.93 µM; Kd (HLA-A*33:01; [2]): ≥ 46.5 µM
YILQLIRHGR | 0.0103 | ≥ 27.4 | 11.2 | 0.0402 | 0.256 | –
